Data on 1 molecule can be found in publication PMC5514624.

In one data set the target is T1, SRCRP2-11-R (Homo sapiens, UniProt Q9UGM3, E4R).
T1 chain: GRVRVLYRGSW
The data set is described as follows: EMSA.

A further data set concerns the target T2, SRCRP2-11 (Homo sapiens, UniProt Q9UGM3).
T2 chain: GRVEVLYRGSW
As to the kind of experiment: EMSA. Background: Mobility shift assays separate free from complexed probe on a gel.

B1: tdTomato1 siRNA (dsRNA)
RNA 1: UUGGUGUCCACGUAGUAGUAG
RNA 2: CUACUACUACGUGGACACCAA
Consider B1, for which the binding result with SRCRP2-11-R and with SRCRP2-11 was “binds” throughout.
